From patent US20200206342A1

Key:
[1] = target: purified soluble 8his-tagged BG505-QES.i03.c01 SOSIP (HIV-1 strain BG505); test: ELISA, purified 8his SOSIP on nickel-coated plate
[2] = target: purified soluble 8his-tagged BG505 SOSIP.664 (T332N), wildtype (HIV-1 strain BG505); test: ELISA, his-tagged SOSIP on nickel-coated plate, peroxidase anti-human IgG-Fc, OD 630 nm
[3] = target: DU422 gp140 (surface-displayed ectodomain) (HIV-1 strain DU422); test: apparent dissociation constant, flow cytometry on Expi293F cells
[4] = target: Q769.d22 Env gp160 wildtype (HIV-1 strain Q769.d22); test: apparent KD, flow cytometry titration on Expi293F cells
[5] = target: Q769.d22 Env A200E + F223Y + I595M (Q769-QES.i03) (HIV-1 strain Q769.d22); test: as above
[6] = target: Q842.d12 Env P124D + F223Y + R557Q + I595M (Q842-QES.i04) (HIV-1 strain Q842.d12); test: as above
[7] = target: BaL Env T49D + P124D + I595M (BaL-QES.i01) (HIV-1 strain BaL); test: as above
[8] = target: Q842.d12 Env gp160 wildtype (HIV-1 strain Q842.d12); test: as above
[9] = target: BaL Env gp160 wildtype (HIV-1 strain BaL); test: as above
[10] = target: BaL Env T49D + P124D + L663N (BaL-QES.i02) (HIV-1 strain BaL); test: as above
[11] = target: Q769.d22 Env A200E + F223Y + I595M (Q769-QES.i03) (HIV-1 strain Q769.d22); test: flow cytometry titration on Expi293F cells
[12] = target: Q842.d12 Env P124D + F223Y + R557Q + I595M (Q842-QES.i04) (HIV-1 strain Q842.d12); test: flow cytometry titration on Expi293F cells
[13] = target: BaL Env T49D + P124D + I595M (BaL-QES.i01) (HIV-1 strain BaL); test: flow cytometry titration on Expi293F cells
[14] = target: BaL Env T49D + P124D + L663N (BaL-QES.i02) (HIV-1 strain BaL); test: flow cytometry titration on Expi293F cells
[15] = target: Q842.d12 Env QES.i04 + I181L (QES.i04.I181L) (HIV-1 strain Q842.d12); test: flow cytometry titration on cells
[16] = target: 25711 Env I181L + V254T (QES.c02) (HIV-1 strain 25711); test: flow cytometry titration on cells
[17] = target: DU422 Env V181L + V254T + V255M (QES.c03) (HIV-1 strain DU422); test: flow cytometry titration on cells
[18] = target: Q769.d22 Env QES.i03 + V255M (QES.i03.V255M) (HIV-1 strain Q769.d22); test: flow cytometry titration on cells
[19] = target: BaL Env QES.i01 + I181L + V255M (QES.i01.c01) (HIV-1 strain BaL); test: flow cytometry titration on cells
[20] = target: F93G; test: flow cytometry, 2 nM PG16, transfected Expi293F cells, percent of cells in the positive gate (Negative: 0.5 %, 0.5 %)
[21] = target: V208G; test: as above
[22] = target: F223L; test: as above
[23] = target: F159V; test: as above
[24] = target: W614A; test: as above
[25] = target: T248E; test: as above
[26] = target: D133W; test: as above
[27] = target: I201M; test: as above
[28] = target: I491S; test: as above
[29] = target: C331I; test: as above
[30] = target: I251S; test: as above
[31] = target: E634A; test: as above
[32] = target: Y191I; test: as above
[33] = target: T319K; test: as above
[34] = target: W338A; test: as above
[35] = target: BaL Env gp160 wildtype (HIV-1 strain BaL); test: as above
[36] = target: V36R; test: as above
[37] = target: S199C; test: as above
[38] = target: Q540V; test: as above
[39] = target: K617Q; test: as above
[40] = target: I686R; test: as above
[41] = target: purified soluble 8his-tagged BG505 SOSIP.664 (T332N), wildtype (HIV-1 strain BG505); test: ELISA, his-tagged SOSIP on copper-coated plate, peroxidase anti-human IgG-Fc, OD 630 nm
[42] = target: purified soluble 8his-tagged BG505-QES.i03.c01 SOSIP (HIV-1 strain BG505); test: as above
[43] = target: Q842.d12 Env gp160 wildtype (HIV-1 strain Q842.d12); test: flow cytometry titration, transfected cells expressing the Env
[44] = target: Q842.d12 Env P124D + F223Y + R557Q + I595M (Q842-QES.i04) (HIV-1 strain Q842.d12); test: flow cytometry, Expi293F cells

CD4-IgG2 (Fc fusion) gave a fold reduction of apparent affinity against wildtype [1] of 5.5 fold and an EC50 (read off the curve) [2] of 80 ng/mL.
In the case of PG16 (antibody), the Kd [3] is reported as 5 nM, the Kd [4] is reported as 5 nM and the Kd [5] is reported as 3.7 nM. The Kd [6] was 5 nM, the Kd [7] was 1.2 nM and the Kd [8] was 3.4 nM. For the same substance, the Kd [9] was 4 nM, the Kd [10] was 1.4 nM and the fold higher binding at saturation against wildtype [11] was 2.7 fold. For the same substance, the fold increase in PG16 binding signal at saturation against wildtype [12] was 2.4 fold, the fold increase in PG16 binding at saturation against wildtype [13] was 1.6 fold and the fold increase in PG16 binding at saturation against wildtype [14] was 1.6 fold. It also gave a fold more PG16 bound at saturation against wildtype [15] of less than 5 fold, a fold more PG16 bound at saturation against wildtype [16] of less than 5 fold and a fold more PG16 bound at saturation against wildtype [17] of less than 5 fold. The fold more PG16 bound at saturation against wildtype [18] was less than 5 fold, the fold more PG16 bound at saturation against wildtype [19] was less than 5 fold and the percent positive cells (first of two replicates) [20] was 1.4%. For the same substance, the percent positive cells (second of two replicates) [20] was 2.1%, the percent positive cells (first of two replicates) [21] was 21.6% and the percent positive cells (second of two replicates) [21] was 22.5%. It also gave a percent positive cells (first of two replicates) [22] of 11.2%, a percent positive cells (second of two replicates) [22] of 10.7% and a percent positive cells (first of two replicates) [23] of 1.4%. For the same substance, the percent positive cells (second of two replicates) [23] was 1.7%, the percent positive cells (first of two replicates) [24] was 1.2% and the percent positive cells (second of two replicates) [24] was 2.1%. For the same substance, the percent positive cells (first of two replicates) [25] was 1.1%, the percent positive cells (second of two replicates) [25] was 2% and the percent positive cells (first of two replicates) [26] was 16%. For the same substance, the percent positive cells (second of two replicates) [26] was 16%, the percent positive cells (first of two replicates) [27] was 29.5% and the percent positive cells (second of two replicates) [27] was 29.8%. It also gave a percent positive cells (first of two replicates) [28] of 1.3%, a percent positive cells (second of two replicates) [28] of 2.1% and a percent positive cells (first of two replicates) [29] of 1.4%. The percent positive cells (second of two replicates) [29] was 1.9%, the percent positive cells (first of two replicates) [30] was 6.1% and the percent positive cells (second of two replicates) [30] was 4.2%. The percent positive cells (first of two replicates) [31] was 11.1%, the percent positive cells (second of two replicates) [31] was 9.3% and the percent positive cells (first of two replicates) [32] was 1.9%. It also gave a percent positive cells (second of two replicates) [32] of 1.9%, a percent positive cells (first of two replicates) [33] of 20.3% and a percent positive cells (second of two replicates) [33] of 18.8%. For the same substance, the percent positive cells (first of two replicates) [34] was 1.3%, the percent positive cells (second of two replicates) [34] was 2% and the percent positive cells (first of two replicates) [35] was 38%. For the same substance, the percent positive cells (second of two replicates) [35] was 36.2%, the percent positive cells (first of two replicates) [36] was 2.1% and the percent positive cells (second of two replicates) [36] was 2.6%. For the same substance, the percent positive cells (first of two replicates) [37] was 1.2%, the percent positive cells (second of two replicates) [37] was 1.6% and the percent positive cells (first of two replicates) [38] was 2.4%. The percent positive cells (second of two replicates) [38] was 3%, the percent positive cells (first of two replicates) [39] was 15% and the percent positive cells (second of two replicates) [39] was 14.8%. It also gave a percent positive cells (first of two replicates) [40] of 5%, a percent positive cells (second of two replicates) [40] of 5.9% and an EC50 (read off the curve) [41] of 0.4 nM. It also gave an EC50 (read off the curve) [42] of 0.2 nM.
PGT145 (antibody) showed an EC50 (read off the curve) [43] of 0.5 nM.
Work on VRC01 (antibody) yielded an EC50 (read off the curve) [41] of 1 nM and an EC50 (read off the curve) [42] of 1 nM.
Substance “soluble CD4 sCD4-183 (domains D1-D2) (from UniProt P01730 26-208) (receptor)” has a Kd [3] of 18 nM and a fold increase in soluble CD4 binding against wildtype [44] of 3 fold.
